The target in test [1] is T1, full-length beta-Catenin (Uniprot ID P35222) (Homo sapiens (Human), UniProt P35222 1-781).
T1 construct: The assay protocol says 'full-length'; also called bCat; B-Catenin
T1 sequence: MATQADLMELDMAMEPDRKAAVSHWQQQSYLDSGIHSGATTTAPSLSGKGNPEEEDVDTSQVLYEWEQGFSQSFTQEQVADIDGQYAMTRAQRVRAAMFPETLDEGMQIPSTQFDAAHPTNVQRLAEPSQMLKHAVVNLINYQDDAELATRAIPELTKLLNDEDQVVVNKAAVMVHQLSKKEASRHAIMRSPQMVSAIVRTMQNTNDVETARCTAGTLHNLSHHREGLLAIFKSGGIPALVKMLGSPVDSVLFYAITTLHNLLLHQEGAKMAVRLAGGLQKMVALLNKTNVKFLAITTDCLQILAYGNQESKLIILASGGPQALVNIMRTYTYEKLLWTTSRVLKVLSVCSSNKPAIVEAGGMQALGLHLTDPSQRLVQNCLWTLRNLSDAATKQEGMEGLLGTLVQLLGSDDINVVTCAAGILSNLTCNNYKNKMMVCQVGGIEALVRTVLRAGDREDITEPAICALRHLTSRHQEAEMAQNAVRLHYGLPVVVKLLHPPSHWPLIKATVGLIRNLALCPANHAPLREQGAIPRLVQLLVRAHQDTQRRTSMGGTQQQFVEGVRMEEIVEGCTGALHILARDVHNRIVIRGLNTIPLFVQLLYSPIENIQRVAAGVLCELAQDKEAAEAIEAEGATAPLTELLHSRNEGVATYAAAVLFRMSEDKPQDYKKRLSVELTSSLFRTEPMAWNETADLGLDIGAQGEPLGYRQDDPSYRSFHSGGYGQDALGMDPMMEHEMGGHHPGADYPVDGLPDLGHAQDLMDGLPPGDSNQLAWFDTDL
As to the kind of experiment: fluorescence polarization competition; full-length beta-catenin, 5FAM-TCF4(10-53) probe as competitor. On the procedure:
The plate was incubated protected from light for 60 minutes at 20° C. prior to read. Reads were performed on a CLARIOstar plate reader (BMG Labtech) in duplicate, and data were fitted to a 1:1 binding model with hill slope using an in-house script. All provided concentrations are final concentrations.

Test [2] deals with T2, B-cat-Halo (UniProt P35222 1-781).
T2 sequence (looked up): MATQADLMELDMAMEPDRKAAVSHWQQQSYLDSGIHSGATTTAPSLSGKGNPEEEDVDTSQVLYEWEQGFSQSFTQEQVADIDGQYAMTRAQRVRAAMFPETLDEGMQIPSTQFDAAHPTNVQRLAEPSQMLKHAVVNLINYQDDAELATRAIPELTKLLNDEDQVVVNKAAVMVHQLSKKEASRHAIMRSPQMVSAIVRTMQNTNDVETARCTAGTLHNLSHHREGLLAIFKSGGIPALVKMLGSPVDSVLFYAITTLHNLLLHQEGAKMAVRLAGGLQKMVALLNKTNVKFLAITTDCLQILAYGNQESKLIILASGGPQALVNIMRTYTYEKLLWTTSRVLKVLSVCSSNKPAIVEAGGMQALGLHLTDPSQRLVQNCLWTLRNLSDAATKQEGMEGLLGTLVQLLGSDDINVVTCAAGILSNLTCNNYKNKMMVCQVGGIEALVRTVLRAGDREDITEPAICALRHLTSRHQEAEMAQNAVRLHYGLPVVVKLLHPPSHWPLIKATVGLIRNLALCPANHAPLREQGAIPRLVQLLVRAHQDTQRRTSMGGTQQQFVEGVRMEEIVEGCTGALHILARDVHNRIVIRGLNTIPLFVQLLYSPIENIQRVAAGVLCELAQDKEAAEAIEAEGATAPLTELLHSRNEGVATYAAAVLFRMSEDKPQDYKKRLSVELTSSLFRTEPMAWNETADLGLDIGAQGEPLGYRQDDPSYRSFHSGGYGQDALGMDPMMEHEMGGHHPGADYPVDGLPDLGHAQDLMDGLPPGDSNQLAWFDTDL
Kind of test: cell-based or functional assay.

The target in test [3] is T3, B-cat-Halo (beta-catenin HaloTag NanoBRET construct expressed in HEK293 cells) (UniProt P35222 1-781).
T3 sequence (looked up): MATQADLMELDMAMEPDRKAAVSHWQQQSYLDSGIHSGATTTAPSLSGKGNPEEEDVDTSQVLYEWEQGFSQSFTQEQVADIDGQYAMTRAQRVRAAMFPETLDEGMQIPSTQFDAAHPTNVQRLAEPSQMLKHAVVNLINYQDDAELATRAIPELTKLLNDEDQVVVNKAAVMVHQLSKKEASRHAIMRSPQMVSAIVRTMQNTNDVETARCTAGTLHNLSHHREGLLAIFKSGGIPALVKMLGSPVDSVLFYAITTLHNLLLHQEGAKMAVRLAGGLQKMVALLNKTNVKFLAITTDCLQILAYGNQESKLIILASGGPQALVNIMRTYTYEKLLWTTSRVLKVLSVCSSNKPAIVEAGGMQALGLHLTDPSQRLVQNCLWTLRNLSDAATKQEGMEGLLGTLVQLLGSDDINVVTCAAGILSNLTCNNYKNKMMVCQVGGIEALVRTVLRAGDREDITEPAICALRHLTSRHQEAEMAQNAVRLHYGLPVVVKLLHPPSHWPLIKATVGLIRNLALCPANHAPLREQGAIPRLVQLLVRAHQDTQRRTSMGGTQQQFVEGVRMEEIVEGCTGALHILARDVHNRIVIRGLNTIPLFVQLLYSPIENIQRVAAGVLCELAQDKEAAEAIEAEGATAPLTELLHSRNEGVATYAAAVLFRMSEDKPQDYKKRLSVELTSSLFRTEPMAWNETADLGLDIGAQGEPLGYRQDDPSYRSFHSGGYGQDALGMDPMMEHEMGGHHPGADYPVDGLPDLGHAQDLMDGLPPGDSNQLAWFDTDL
As to the kind of experiment: cell-based or functional assay.

For test [4], the target named is T4, beta-catenin in DLD1 TCF/LEF luciferase reporter cells (UniProt P35222 1-781).
T4 sequence (looked up): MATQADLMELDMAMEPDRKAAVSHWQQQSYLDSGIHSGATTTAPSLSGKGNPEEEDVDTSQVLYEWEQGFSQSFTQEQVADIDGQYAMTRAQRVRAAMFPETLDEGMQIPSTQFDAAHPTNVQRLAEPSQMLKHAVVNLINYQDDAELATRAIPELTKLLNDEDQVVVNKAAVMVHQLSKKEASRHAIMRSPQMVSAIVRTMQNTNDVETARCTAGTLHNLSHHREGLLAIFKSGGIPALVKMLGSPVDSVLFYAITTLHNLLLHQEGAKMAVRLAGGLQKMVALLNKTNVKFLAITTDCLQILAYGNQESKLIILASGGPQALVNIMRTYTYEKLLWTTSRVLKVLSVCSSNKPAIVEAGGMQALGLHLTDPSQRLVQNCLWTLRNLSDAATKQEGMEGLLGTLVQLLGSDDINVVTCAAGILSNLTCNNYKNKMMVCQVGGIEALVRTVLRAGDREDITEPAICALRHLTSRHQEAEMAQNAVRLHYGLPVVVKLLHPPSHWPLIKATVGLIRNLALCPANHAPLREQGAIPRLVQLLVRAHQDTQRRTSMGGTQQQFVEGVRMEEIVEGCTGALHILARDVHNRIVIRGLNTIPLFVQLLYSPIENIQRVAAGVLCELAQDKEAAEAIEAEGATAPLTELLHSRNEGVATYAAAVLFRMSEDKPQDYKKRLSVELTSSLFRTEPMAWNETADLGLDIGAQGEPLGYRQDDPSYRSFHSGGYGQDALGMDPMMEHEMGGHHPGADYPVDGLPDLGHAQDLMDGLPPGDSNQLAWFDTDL
Kind of test: cell-based or functional assay.

Test [5] addresses T5, B-cat-Halo (UniProt P35222 1-781).
T5 construct: Expressed by transfection in HEK293 cells for the NanoBRET assay; also called beta-catenin HaloTag NanoBRET construct; not shown: HaloTag
T5 sequence (looked up): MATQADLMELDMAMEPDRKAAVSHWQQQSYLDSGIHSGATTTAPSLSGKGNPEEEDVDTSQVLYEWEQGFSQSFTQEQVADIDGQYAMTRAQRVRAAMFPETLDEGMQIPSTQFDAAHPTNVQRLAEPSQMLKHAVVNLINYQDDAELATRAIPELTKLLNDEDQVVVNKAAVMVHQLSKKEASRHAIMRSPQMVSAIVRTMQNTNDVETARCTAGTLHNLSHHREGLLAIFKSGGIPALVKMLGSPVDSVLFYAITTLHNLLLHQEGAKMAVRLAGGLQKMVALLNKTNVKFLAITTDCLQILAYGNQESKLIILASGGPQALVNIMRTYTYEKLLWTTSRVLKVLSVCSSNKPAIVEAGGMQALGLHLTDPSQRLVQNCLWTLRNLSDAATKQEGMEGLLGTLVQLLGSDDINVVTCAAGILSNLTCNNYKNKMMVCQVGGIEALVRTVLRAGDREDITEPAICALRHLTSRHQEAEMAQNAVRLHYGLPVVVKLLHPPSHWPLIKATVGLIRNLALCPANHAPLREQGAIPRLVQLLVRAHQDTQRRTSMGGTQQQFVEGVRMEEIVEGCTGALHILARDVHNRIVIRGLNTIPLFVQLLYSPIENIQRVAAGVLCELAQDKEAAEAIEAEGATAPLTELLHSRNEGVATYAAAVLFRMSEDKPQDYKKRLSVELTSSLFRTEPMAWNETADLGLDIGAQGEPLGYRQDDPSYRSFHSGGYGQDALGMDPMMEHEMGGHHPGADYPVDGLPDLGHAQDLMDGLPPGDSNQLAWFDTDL
Kind of test: NanoBRET Abs IC50 in HEK293 cells; Bcat-Halo, TCF4-Luc as competitor.

The values below come from patent publication US20240116985A1 (published 2024).

Starred links: 1 amine or outer side, 2 acyl side, 3 side chain; linkers in the order of their positions; H or OH if unused. Positions of bridges follow the written chain, without caps; N, C: chain ends. Non-standard residues stand in square brackets, D forms with d. Primed or numbered codes have the meaning given here. *: point of attachment. PyrS2″ = (S)-3-amino-1-((pent-4-en-1-yloxy)carbonyl)pyrrolidine-3-carboxylic acid (stapling residue), C=CCCCOC(=O)N1CC[C@@](N[*:1])(C(=O)[*:2])C1; B5(4) = 2,2-bis(4-pentenyl)glycine = 2-amino-2-(pent-4-en-1-yl)hept-6-enoic acid (stitching residue), C=CCCCC(CCCC=C)(N[*:1])C(=O)[*:2]; B5(21) = 2-amino-2-(pent-4-en-1-yl)hept-6-enoic acid, bis(4-pentenyl)glycine (stitching residue), C=CCCCC(CCCC=C)(N[*:1])C(=O)[*:2]; TfeGA = (S)-2-amino-3-((carboxymethyl)(2,2,2-trifluoroethyl)amino)propanoic acid, O=C([C@H](CN(CC(=O)[*:3])CC(F)(F)F)N[*:1])[*:2]; SeN = (S)-5-(((allyloxy)carbonyl)(methyl)amino)-2-amino-2-methylpentanoic acid, C=CCOC(=O)N(C)CCC[C@](C)(N[*:1])C(=O)[*:2]; B5(3) = 2,2-bis(4-pentenyl)glycine (stitching residue), C=CCCCC(CCCC=C)(N[*:1])C(=O)[*:2]; Phe(2-Cl) = N[C@@H](Cc1ccccc1Cl)C(=O)O; Bta = N[C@@H](Cc1csc2ccccc12)C(=O)O; αAllylPro = C=CC[C@@]1(C(=O)O)CCCN1; tBuAla = CC(C)(C)C[C@H](N)C(=O)O; S8 = C=CCCCCCC[C@](C)(N)C(=O)O; Alaol = C[C@@H](CO)N*

On to Ac-[αAllylPro]DA[B5(21)]DDAAFV[SeN]FWQ-NH2 (staple 1-4, 4-11, Same description as I-54) [I-53: Ac-PL3-Asp-Ala-B5-Asp-Asp-Ala-Ala-Phe-Val-SeN-Phe-Trp-Gln-NH2 (stapled peptide)], for which the IC50 in test [1] was 5 µM.

B1: I-64: Ac-Ala-Asp-Ile-RdN-Asp-Asp-Ala-Ala-Phe-Gln-S7-Phe-Trp-His-NH2 (stapled peptide) (peptide)
peptide: ADIXDDAAFQXFWH
modifications: not fully specified; N-terminal acetyl (Ac); C-terminal amide (NH2); RdN at position 4 and S7 at position 11 (non-natural olefin amino acids); stapled by olefin metathesis RdN-S7
notes: Same description as I-65
With B1, in test [1], the IC50 was found to be 4.25 µM. In the case of Ac-[αAllylPro]D[tBuAla][B5(3)]D[TfeGA]AAFF[PyrS2″][Phe(2-Cl)][Bta]S-NH2 (staple 1-4, 4-11) [I-990], the “NanoBRET Abs IC50” value in the test with B-cat-Halo [2] turned out to be 8.8 µM. Take Ac-[αAllylPro]D[tBuAla][B5(3)]DDAAFN[PyrS2″][Phe(2-Cl)][Bta]-Alaol (staple 1-4, 4-11) [I-1081]: the “NanoBRET Abs IC50” value in test [3] amounted to 16.7 µM. For the same molecule, in test [4], the “DLD1 reporter assay Abs IC50” value amounted to 10 µM.

B2: I-565 (peptide)
peptide: Ac-[αAllylPro]DL[B5(21)]DDAAFN[S8]F[Bta]H-NH2
modifications: staple 1-4, 4-11; not fully specified
notes: Stapled peptide composition; also called Ac-PL3-Asp-Leu-B5-Asp-Asp-Ala-Ala-Phe-Asn-S8-Phe-BztA-His-NH2
Regarding B2, in the test with B-cat-Halo [5], the IC50 is 26 µM.

B3: I-576 (peptide)
peptide: XDLXDEAAFNXFXQ
modifications: not fully specified; N-terminal Ac; C-terminal NH2; non-natural PL3 (1), B5 (4), S8 (11), BztA (13); stapled PL3-B5 and B5-S8 by olefin metathesis
notes: Stapled peptide composition; also called Ac-PL3-Asp-Leu-B5-Asp-Glu-Ala-Ala-Phe-Asn-S8-Phe-BztA-Gln-NH2
B3 came in with an IC50 with B-cat-Halo [5] of 11.1 µM.

B4: I-577 (peptide)
peptide: Ac-[αAllylPro]DL[B5(21)]DEAAFN[S8]F[Bta]Q-NH2
modifications: staple 1-4, 4-11; not fully specified
notes: as for B3
In the test with B-cat-Halo [5], B4 displayed an IC50 of 10.4 µM. In the case of Ac-[αAllylPro]D[tBuAla][B5(4)]DDAAFN[PyrS2″][Phe(2-Cl)][Bta]Q-NHEt (staple 1-4, 4-11) [I-1079], the “NanoBRET Abs IC50” value in test [3] came out at 19.7 µM. Further, the “DLD1 reporter assay Abs IC50” value in test [4] is 14.5 µM.
